Experimental data from US20190040149A1 (Innovent, published 2019).
Where a chain is given by its changes, count along the chain named.

T1: murine PD-1 (soluble antigen of the MSD assay) (mouse, UniProt Q02242 25-169, limits assumed)
T1 construct: also called mouse PD-1
T1 sequence: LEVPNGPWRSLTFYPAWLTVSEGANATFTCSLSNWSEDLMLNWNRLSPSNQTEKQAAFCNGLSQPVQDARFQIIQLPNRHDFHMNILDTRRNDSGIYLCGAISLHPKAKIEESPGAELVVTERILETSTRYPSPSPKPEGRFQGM

T2: murine PD-1 on CHO cells (mouse, UniProt Q02242 25-288)
T2 sequence: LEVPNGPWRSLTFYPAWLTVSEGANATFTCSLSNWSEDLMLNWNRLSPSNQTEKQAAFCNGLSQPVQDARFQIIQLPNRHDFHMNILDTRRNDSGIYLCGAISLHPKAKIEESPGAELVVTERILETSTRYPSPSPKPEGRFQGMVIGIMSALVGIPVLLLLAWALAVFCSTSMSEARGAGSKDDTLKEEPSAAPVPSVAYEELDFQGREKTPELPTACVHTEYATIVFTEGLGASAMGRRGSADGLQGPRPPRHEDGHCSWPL

B1: Antibody D, IgG1 format expressed in yeast (antibody, V domains shown)
VH: QVQLVQSGAEVKKPGASVKVSCKASGYTFEKYYMHWVRQAPGQGLEWMGIINPDGGSTGYAQKFQGRVTMTRDTSTSTVYMELSSLRSEDTAVYYCAKEGVADGYGLVDVWGQGTMVTVSS
VL: EIVLTQSPATLSLSPGERATLSCRASQSVSSYLAWYQQKPGQAPRLLIYDASKRATGIPARFSGSGSGTDFTLTISSLEPEDFAVYYCDQRNNWPLTFGGGTKVEIK
notes: Tested in IgG1 format, expressed in yeast
B2: Antibody F, IgG1 format expressed in yeast (antibody, V domains shown)
VH: B1 VH with E30S, K31A
VL: B1 VL
notes: as for B1
B3: Antibody C, IgG1 format expressed in yeast (antibody, V domains shown)
VH: B1 VH with E30T, K31A, Y32Q, D54S, S57E
VL: B1 VL
notes: as for B1
B4: Antibody A, IgG1 format expressed in yeast (antibody, V domains shown)
VH: B1 VH with E30T, K31S, D54S, G59S, V119I
VL: B1 VL
notes: as for B1
B5: Antibody B, IgG1 format expressed in yeast (antibody, V domains shown)
VH: B1 VH with K31G, D54E, S57E, G59S, T76I, V79A, S85R, E89D
VL: B1 VL
notes: as for B1

Assays:
[1] = target: T3, human PD-1 (soluble antigen of the MSD assay, b-PD-1 monomer) (human, UniProt Q15116 25-170, limits assumed, biotinylated (b-PD-1), site not stated); test: MSD solution equilibrium titration, monovalent KD
T3 construct: The antigen format of the 'avid' measurement is not described
Procedure: (§1) Equilibrium affinity measurements are performed as previously described (Estep, P., et al., MAbs, 2013. 5(2): p. 270-8). Solution equilibrium titrations (SET) are performed in PBS+0.1% IgG-Free BSA (PBSF) where antigen (b-PD-1 monomer) is held constant at 10-100 pM and is incubated with 3- to 5-fold serial dilutions of Fab or mAbs starting at 5-100 nM (experimental condition is sample dependent). Antibodies diluted at 20 nM in PBS are coated onto standard bind MSD-ECL plates overnight at 4° C. or at room temperature for 30 min. Plates are blocked with BSA for 30 min whilst shaking at 700 rpm. Plates are then washed 3× with wash buffer (PBSF+0.05% Tween 20). SET samples are applied and incubated on the plates for 150 s with shaking at 700 rpm followed by one wash. Antigen captured on a plate is detected with 250 ng/mL sulfotag-labeled streptavidin in PBSF by incubation on the plate for 3 min. The plates are washed three times with wash buffer and are then read on the MSD Sector Imager 2400 instrument using 1× Read Buffer T with surfactant. The percent free antigen is plotted as a function of titrated antibody in Prism and fit to a quadratic equation to extract the KD. To improve throughput, liquid handling robots are used throughout MSD-SET experiments, including for SET sample preparation.

[2] = target: T1, murine PD-1 (soluble antigen of the MSD …); test: MSD solution equilibrium titration, monovalent KD
Procedure: as §1

human PD-1_HIS = target: T4, human PD-1_HIS (human, UniProt Q15116 25-167, limits assumed); test: bio-layer interferometry (ForteBio), human PD-1_HIS in solution, IgG on sensor tip
T4 construct: not shown: His tag
Procedure: Briefly, ForteBio affinity measurements were performed by loading IgGs online onto AHQ sensors. Sensors were equilibrated off-line in assay buffer for 30 min and then monitored on-line for 60 seconds for baseline establishment. Sensors with loaded IgGs were exposed to 100 nM antigen for 5 min, afterwards they were transferred to assay buffer for 5 min for off-rate measurement. Kinetics was analyzed using the 1:1 binding model.

[3] = target: T3, human PD-1 (soluble antigen of the MSD …); test: MSD solution equilibrium titration, avid KD
Procedure: as §1

murine PD-1 on CHO cells = target: T2, murine PD-1 on CHO cells; test: flow cytometry on CHO cells with murine PD-1
Procedure: (§2) Cells are then washed 3×, and are incubated with a secondary antibody (PE-labelled, at final concentration of 5 μg/ml) in PBS 1% BSA for 30 min on ice (protected from light). Cells are washed 3× and analyzed via flow cytometry. Flow cytometry is performed on an Accuri C6 system (BD Biosciences) and MFIs are calculated on the C6 software. EC50 s are calculated on Graphpad software.

[4] = target: T1, murine PD-1 (soluble antigen of the MSD …); test: MSD solution equilibrium titration, avid KD
Procedure: as §1

[5] = target: T5, human PD-1 on cells (CHO cells; T cells in the mixed lymphocyte reaction) (human, UniProt Q15116 25-288); test: cell-based or functional assay
[6] = target: T5, human PD-1 on cells (CHO cells; T cells …); test: cell-based or functional assay; remark: listed apart in the source
[7] = target: T5, human PD-1 on cells (CHO cells; T cells …); test: flow cytometry on CHO cells with human PD-1 (n=1)
Procedure: as §2

[8] = target: T5, human PD-1 on cells (CHO cells; T cells …); test: flow cytometry, remaining PD-L2-FITC signal after 100 nM antibody; competitor PD-L2-FITC
Procedure: CHO cells 0.2×10⁶ are incubated with the experimental antibody (100 nM) for 30 min in PBS 1% BSA on ice. […] Cells are washed 3× and analyzed via flow cytometry. Flow cytometry is performed on an Accuri C6 system (BD Biosciences) and MFIs are calculated on the C6 software. EC50 s are calculated on Graphpad software.

T5 sequence (Q15116 25-288 limits assumed): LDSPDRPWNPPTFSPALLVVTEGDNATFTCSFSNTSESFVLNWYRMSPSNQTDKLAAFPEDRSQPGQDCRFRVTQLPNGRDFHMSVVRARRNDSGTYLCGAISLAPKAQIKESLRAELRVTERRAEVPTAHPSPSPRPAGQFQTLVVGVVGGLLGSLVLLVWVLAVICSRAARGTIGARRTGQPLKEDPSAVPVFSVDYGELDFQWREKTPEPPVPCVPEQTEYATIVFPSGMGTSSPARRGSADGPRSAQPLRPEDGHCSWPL
T3 sequence (Q15116 25-170 limits assumed): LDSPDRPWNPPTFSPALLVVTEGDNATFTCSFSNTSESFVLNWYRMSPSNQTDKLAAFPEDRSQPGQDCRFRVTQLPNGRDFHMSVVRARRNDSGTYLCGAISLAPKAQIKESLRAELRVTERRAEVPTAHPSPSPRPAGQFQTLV
T4 sequence (Q15116 25-167 limits assumed): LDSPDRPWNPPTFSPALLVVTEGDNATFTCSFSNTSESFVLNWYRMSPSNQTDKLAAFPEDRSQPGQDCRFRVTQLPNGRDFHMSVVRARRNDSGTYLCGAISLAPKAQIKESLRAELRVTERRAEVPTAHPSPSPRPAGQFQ

Binder | Kd [1] [nM] | Kd [2] [nM] | Kd (human PD-1_HIS) [nM] | Kd [3] [nM] | EC50 (murine PD-1 on CHO cells) [nM] | Kd [4] [nM] | IL-2 in supernatant, 0.01 nM IgG [5] [pg/mL] | IL-2 in supernatant, 0.1 nM IgG [5] [pg/mL] | IL-2 in supernatant, 1 nM IgG [5] [pg/mL] | IL-2 in supernatant, 10 nM IgG [5] [pg/mL] | IL-2 in supernatant, 100 nM IgG [5] [pg/mL] | IL-2 secretion fold change vs. IgG control, 0.01 nM IgG [5] [fold] | IL-2 secretion fold change vs. IgG control, 0.1 nM IgG [5] [fold] | IL-2 secretion fold change vs. IgG control, 1 nM IgG [5] [fold] | IL-2 secretion fold change vs. IgG control, 10 nM IgG [5] [fold] | IL-2 secretion fold change vs. IgG control, 100 nM IgG [5] [fold] | IFNg secretion fold change vs. IgG control, 0.01 nM IgG [6] [fold] | IFNg secretion fold change vs. IgG control, 0.1 nM IgG [6] [fold] | IFNg secretion fold change vs. IgG control, 1 nM IgG [6] [fold] | IFNg secretion fold change vs. IgG control, 10 nM IgG [6] [fold] | other results
B1 | 0.3 | 2.3 | 1.9 | 0.035 | 9.26 | – | – | – | – | – | – | – | – | – | – | – | – | – | – | – | –
B2 | 0.17 | 1.2 | 1.6 | 0.018 | 5.86 | 0.44 | – | – | – | – | – | – | – | – | – | – | – | – | – | – | –
B3 | 0.12 | 1.9 | 1 | 0.0093 | 2.88 | 0.13 | 519 | 587 | 914 | 1190 | 1620 | 1.01 | 1.15 | 1.83 | 2.29 | 2.62 | 0.97 | 1.5 | 1.82 | 1.79 | IFNg secretion fold change vs. IgG control, 100 nM IgG [6]: 1.84 fold; IFNγ in supernatant, 0.01 nM IgG [6]: 14400 pg/mL; IFNγ in supernatant, 0.1 nM IgG [6]: 16500 pg/mL; IFNγ in supernatant, 1 nM IgG [6]: 21100 pg/mL; IFNγ in supernatant, 10 nM IgG [6]: 24100 pg/mL; IFNγ in supernatant, 100 nM IgG [6]: 27400 pg/mL; EC50 [7]: 4.12 nM; MFI (PD-L2-FITC) [8]: 30100 MFI
B4 | 4.9 | 9.6 | 4.3 | 0.049 | 11 | – | 708 | 586 | 618 | 975 | 1410 | 1.37 | 1.15 | 1.23 | 1.87 | 2.28 | 1.49 | 1.49 | 1.11 | 1.37 | IFNg secretion fold change vs. IgG control, 100 nM IgG [6]: 1.52 fold; IFNγ in supernatant, 0.01 nM IgG [6]: 22100 pg/mL; IFNγ in supernatant, 0.1 nM IgG [6]: 16400 pg/mL; IFNγ in supernatant, 1 nM IgG [6]: 12900 pg/mL; IFNγ in supernatant, 10 nM IgG [6]: 18400 pg/mL; IFNγ in supernatant, 100 nM IgG [6]: 22600 pg/mL; EC50 [7]: 10.2 nM; MFI (PD-L2-FITC) [8]: 90900 MFI
B5 | 0.13 | 2.7 | 1.4 | 0.014 | 6.13 | 0.38 | – | – | – | – | – | – | – | – | – | – | – | – | – | – | –
